The values that follow come from publication PMC11092324 (Journal of Virology, 2024).

What all share (conditions): both partners purified
The target of test [1] is T1, GI.9 Vancouver virus-like particles (VP1 protein of the norovirus GI.9 Vancouver strain) (Norovirus Hu/GI.9/Vancouver730/2004/CAN, UniProt F2XMU3, strain).
T1 construct: also called Vancouver VLPs; GI.9 Vancouver VP1
Briefly: ELISA; sandwich ELISA: Strep-tagged CV-2F5 scFv (0.7 µM in PBS) held on Strep-Tactin-coated wells, VLPs added in twofold serial dilutions, 37°C 2 h, detected with rabbit anti-VLP antisera; data fit to the Michaelis-Menten equation, Km taken as Kd (affinity or avidity); concentration counted as VP1. On the technique in general: An ELISA detects its analyte on a solid surface through an enzyme-linked reagent.

Test [2] has as its target T2, P domain of the VP1 protein from the GI.4 Chiba strain (P dimer) (norovirus GI.4 Chiba strain).
T2 construct: also called Chiba P domain protein; Chiba P dimers; source: E. coli cell-free protein synthesis system, purified (HisTrap, SUMO protease, HiTrapQ)
T2 chain: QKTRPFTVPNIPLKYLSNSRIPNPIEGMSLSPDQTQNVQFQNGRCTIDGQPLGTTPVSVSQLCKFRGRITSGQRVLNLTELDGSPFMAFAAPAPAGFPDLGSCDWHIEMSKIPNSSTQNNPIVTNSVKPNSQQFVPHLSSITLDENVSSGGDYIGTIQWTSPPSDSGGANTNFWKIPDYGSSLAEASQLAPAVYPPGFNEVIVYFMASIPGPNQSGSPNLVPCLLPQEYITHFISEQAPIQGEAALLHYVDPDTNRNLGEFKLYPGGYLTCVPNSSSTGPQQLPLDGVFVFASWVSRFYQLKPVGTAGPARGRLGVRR
Briefly: crystal structure; Chiba P domain mixed with CV-2F5 scFv in a molar ratio of 1:1.2, complex isolated by size-exclusion chromatography, crystallized by sitting drop at 25°C in 35% Tacsimate pH 7.0. (In general: Size exclusion chromatography separates by hydrodynamic size, large species first.)

For test [3], the target named is T1, GI.9 Vancouver virus-like particles …. Briefly: ELISA; sandwich ELISA: CV-1A1 Fv-clasp or scFv (0.7 µM in 50 mM carbonate buffer pH 9.6) coated on high-binding microplates, VLPs added in twofold serial dilutions, 37°C 2 h, detected with rabbit anti-VLP antisera; data fit to the Michaelis-Menten equation, Km taken as Kd (affinity or avidity); concentration counted as VP1.

B1: Strep-tagged CV-2F5 scFv (scFv, V domains shown)
VH: EVQLVESGGGLVKPGGSLRLSCAASGFTFSSYNMNWVRQAPGKGLEWVSSISTSSRYIYYADSVKGRFTISRDNAKNSLYLQMNSLRAEDTAVYYCAREEGSVDYGMDVWGQGTTVTVSS
VL: not shown
notes: also called CV-2F5-Strep; source: E. coli harboring pETSUMO-CV-2F5-Strep, purified (TALON resin, SUMO protease on the resin); not shown: His tag, N-terminal, cleaved; SUMO, N-terminal, cleaved; Strep-tag, C-terminal, kept
Molecule B1 showed a Kd in test [1] of 14.4 nM.

B2: CV-2F5 scFv (N11-TEV construct, tag removed) (scFv, V domains shown)
VH: B1 VH
VL: not shown
notes: also called CV-2F5 antibody fragment; CV-2F5 scFv antibodies; source: E. coli cell-free protein synthesis system, purified (HisTrap, TEV protease, HiTrap SP)
B2: in test [2], the stoichiometry N (commonly a count of units in the complex or per binding partner) worked out at 1.

B3: CV-1A1 Fv-clasp (other)
VH: EVQLVESGAEVKKPGASVKVSCKASGYTFTSLYMHWVRQAPGQGLEWMGMINPSGGGTWNAQKFQGRVTMTRDTSTSTVYMELRSLRSDDTAMYYCARDSDQYSQGLGYWGQGTLVTVCS
VL: QSALTQPASVSGSPGQSITISCTGTSSDVGGYNYVSWYQQHPGKAPKLMIYDVSKRPSGVSNRFSGSKSGNTASLTISGLQAKDEADYYCSSYTSSSTWVFGGGTKLTVL
notes: also called CV-1A1 Fv-clasp fragments; Fv-clasp version of CV-1A1; source: E. coli cell-free protein synthesis system (with DsbC and Skp), purified (HisTrap, TEV protease, HiTrap Q)
For B3, in test [3], the binding result is given as “no binding”.
